T1: MCSF (Homo sapiens, UniProt P09603)
T1 sequence (P09603 33-255 limits assumed): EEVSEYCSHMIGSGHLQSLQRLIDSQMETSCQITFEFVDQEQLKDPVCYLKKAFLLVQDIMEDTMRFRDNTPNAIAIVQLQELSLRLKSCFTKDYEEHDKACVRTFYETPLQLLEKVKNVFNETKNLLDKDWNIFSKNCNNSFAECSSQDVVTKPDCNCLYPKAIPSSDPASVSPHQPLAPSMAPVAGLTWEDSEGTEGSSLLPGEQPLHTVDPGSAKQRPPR

B1: 5H4: MCSF-specific murine antibody 5H4 (SEQ ID NOs: 10 and 11) (antibody, listed as Mus musculus)
heavy: EIQLQQSGPELVKTGTSVKISCKASGYSFTGYFMHWVKQSHGKSLEWIGYISCYNGDTNYNQNFKGKATFTVDTSSSTAYMQFNSLTSEDSAVYYCAREGGNYPAYWGQGTLVTVSAAKTTPPSVYPLAPGSAAQTNSMVTLGCLVKGYFPEPVTVTWNSGSLSSGVHTFPAVLQSDLYTLSSSVTVPSSTWPSETVTCNVAHPASSTKVDKKIVPRDCGCKPCICTVPEVSSVFIFPPKPKDVLTITLTPKVTCVVVDISKDDPEVQFSWFVDDVEVHTAQTQPREEQFNSTFRSVSELPIMHQDWLNGKEFKCRVNSAAFPAPIEKTISKTKGRPKAPQVYTIPPPKEQMAKDKVSLTCMITDFFPEDITVEWQWNGQPAENYKNTQPIMDTDGSYFVYSKLNVQKSNWEAGNTFTCSVLHEGLHNHHTEKSLSHSPGK
light: DIVMTQSHKFMSTSVGDRVTITCKASQNVGTAVTWYQQKPGQSPKLLIYWTSTRHAGVPDRFTGSGSGTDFTLTISDVQSEDLADYFCQQYSSYPLTFGAGTKLELKRADAAPTVSIFPPSSEQLTSGGASVVCFLNNFYPKDINVKWKIDGSERQNGVLNSWTDQDSKDSTYSMSSTLTLTKDEYERHNSYTCEATHKTSTSPIVKSFNRNEC
B2: heRX1-10.G4: Human Engineered RX1 construct 10 with IgG4 constant region; named only in Table 12 (antibody)
heavy: QVQLQESGPGLVKPSQTLSLTCTVSDYSITSDYAWNWIRQFPGKGLEWMGYISYSGSTSYNPSLKSRITISRDTSKNQFSLQLNSVTAADTAVYYCASFDYAHAMDYWGQGTTVTVSS
light: DIVLTQSPAFLSVTPGEKVTFTCQASQSIGTSIHWYQQKTDQAPKLLIKYASESISGIPSRFSGSGSGTDFTLTISSVEAEDAADYYCQQINSWPTTFGGGTKLEIKRT
modifications: left off: a dimerising Fc or GST

Columns and labels:
MCSF [1] = molecular target: T1, MCSF; experiment: Biacore analysis, M-CSF immobilized, intact Mab or Fab flowed over (Example 11); format: binding; settings: Table 9, 25° C., 1:1 interaction model
Description: Specifically, M-CSF was immobilized onto CMS biosensor chip via amine coupling. 0.05 μg/ml M-CSF in 10 mM Na Acetate pH 4.0 was injected at 1 μl/min for 5 minutes to achieve RL=6-12 RU. Test antibody (or Fab fragment) were flowed over the modified biosensor surface at varying concentrations. Test antibodies were diluted in 0.01 M HEPES pH 7.4, 0.15 M NaCL, 3 mM EDTA, 0.005% Surfactant P20 (HBS-EP) and all experiments were done at 25° C. Kinetic and affinity constants were determined using Biaevaluation software (Biacore) with a 1:1 interaction model/global fit.

MCSF [2] = molecular target: T1, MCSF; experiment: Biacore analysis, antibody captured on anti-mouse Fc chip, MCSF flowed over; format: binding; settings: Table 8, 25° C., 1:1 interaction model
Description: Binding properties of the aforementioned antibodies were analyzed using Biacore analyses. […] The aforementioned antibodies were then captured on the anti-mouse Fc/CM5 biosensor chip at 1.5 μg/ml for 3 min at 2 μl/min. MCSF was flowed over the modified biosensor surface at varying concentrations (Rmax ˜15). Test antibodies and antigen were diluted in 0.01 M HEPES pH 7.4, 0.15 M NaCL, 3 mM EDTA, 0.005% Surfactant P20 (HBS-EP). All experiments were performed at 25° C. Kinetic and affinity constants were determined using Biaevaluation software (Biacore) with a 1:1 interaction model/global fit.

MCSF [3] = molecular target: T1, MCSF; experiment: Recognition of M-CSF under reducing and non-reducing conditions; format: binding; settings: 0.1 μg M-CSF
Description: Accordingly, the anti-M-CSF antibodies were tested against 0.1 μg M-CSF under reducing as well as non-reducing conditions.

MCSF [4] = molecular target: T1, MCSF; experiment: M-NFS-60 proliferation assay, neutralizing activity (Example 14); format: cell-based; settings: Table 12; relative IC50, M-NFS-60 proliferation, 10 ng/ml M-CSF, 72 hours
Excerpt: To test the neutralizing activity of M-CSF antibodies, a proliferation assay of M-NFS-60 cell line was used (American Type Culture Collection, Accession No. CRL-1838, available from ATCC in Rockville, Md., USA, derived from a myologenous leukemia induced with the Cas-Br.MuLV wild mouse ecotropic retrovirus. The cell line responds to both interleukin 3 and M-CSF and contains a truncated c-myb proto-oncogene caused by the integration of a retrovirus). Proliferation of M-NFS-60 requires active M-CSF in a dose-dependent fashion. In the assay, M-NFS-60 cells were washed and plated in RPIM1640 medium with 10% FBS and 1% Pen/Strep. […] Cells were incubated at 37° C. under 5% CO2 for 72 hours before cell numbers were quantified by CellTiter Glo assay (Promega). […] The IC50 of each antibody was analyzed by curve fit.
The assay was repeated using human MCSF in serum, MDA231 conditioned medium (which contains M-CSF), cynomologous monkey MCSF in serum, and cynomologous monkey recombinant MCSF. The results are presented in FIGS. 25 (recombinant MCSF), 26 (human MCSF in serum) and 27 (MDA231 conditioned medium) as the fluorescent reading from CellTiter Glo assay, which is linear with cell number. […]

Molecule	Ka (MCSF [1]) [M⁻¹ s⁻¹]	Kd (MCSF [1]) [s⁻¹]	Ka (MCSF [2]) [M⁻¹ s⁻¹]	Kd (MCSF [2]) [s⁻¹]	Form of M-CSF recognized (MCSF [3])	IC50 Fold Loss (MCSF [4])
B1	127000	0.00126	594000	0.00177	Only the non-reduced form of M-CSF was recognized	–
B2	–	–	–	–	–	No loss
